From patent US5395750, “Methods for producing proteins which bind to predetermined antigens” (Hoffmann-La Roche Inc., dated 1995) come the findings set out here.

The target in this test is HIV-1 tat protein (HIV-1, UniProt P04608). The test can be described thus: phage binding to tat coated magnetic beads; TR5 also selected in 4 separate screening experiments.

B1: phage TR5 (anti-tat Fv, synthetic single chain antibody displayed on FUSE5 phage) (scFv)
scFv: EVQLVESGRGLVQPGGSLRLSCAASGFTFSHFLVAWVRQAPGKGLEWVATYSMISRARVLDGSFNGRYTISRDDSKNTLYLQMNSLRAEDTAVYYCARIGSTHTIPRLSQYGGQGTLVTVSSGGGGSGGGGSGGGGSDIQMTQSPSSLSASVGDRVTITCKLRGPQPHAITWYQQKPGKAPKLLIYYDGQTLVGVPSRFSGSGSGTDFTPTISSLEPEDFATYYCTPTHKIDSPFGQGTKVEIKRT
Take B1: the binding result is “binds”.
